The source of these data is article PMC10786891, “Massively parallel profiling of RNA-targeting CRISPR-Cas13d”.

Substitutions are numbered along the chain they refer to. Names may count otherwise.

First the molecules themselves.
B1: target 1 insU 3' of 21,insU 3' of 1 (mixed)
RNA 1: CACCCGUGCAAAAAUGCAGGGGUCUAAAACUGAGCGGAUAACCUCUCUAUGG
RNA 2: GGGAAUGGAUCCACAUCUACGAAUUCGUACCUAUAGAGAGGUUAUCCGCUCAUCCGAGAUCGGAAGAGCACACGU
B2: target 1 U3C,U8C (mixed)
RNA 1: B1 RNA 1
RNA 2: GGGAAUGGAUCCACAUCUACGAAUUCGUACCAUAGAGAGGUUACCCGCCCACCGAGAUCGGAAGAGCACACGU
B3: target 1 insC 3' of 20,insU 3' of 17 (mixed)
RNA 1: B1 RNA 1
RNA 2: GGGAAUGGAUCCACAUCUACGAAUUCGUACCACUAGUAGAGGUUAUCCGCUCACCGAGAUCGGAAGAGCACACGU
B4: target 1 insU 3' of 17,insA 3' of 8 (mixed)
RNA 1: B1 RNA 1
RNA 2: GGGAAUGGAUCCACAUCUACGAAUUCGUACCAUAGUAGAGGUUAUACCGCUCACCGAGAUCGGAAGAGCACACGU
B5: target 1 insA 3' of 21,insG 3' of 8 (mixed)
RNA 1: B1 RNA 1
RNA 2: B4 RNA 2 with U33A, A34U, G35A, U36G, A46G
B6: target 1 C2U,G13U (mixed)
RNA 1: B1 RNA 1
RNA 2: B2 RNA 2 with G39U, C44U, C49U, C50U
B7: target 1 insA 3' of 10,insC 3' of 9 (mixed)
RNA 1: B1 RNA 1
RNA 2: B4 RNA 2 with U36A, A37G, G38A, A39G, G41U, U43A, U45C, A46U
B8: target 1 U3C,C6A (mixed)
RNA 1: B1 RNA 1
RNA 2: B2 RNA 2 with C44U, C46A
B9: target 1 U3A,C6G (mixed)
RNA 1: B1 RNA 1
RNA 2: B2 RNA 2 with C44U, C46G, C49A
B10: target 1 C2A,G5A (mixed)
RNA 1: B1 RNA 1
RNA 2: B2 RNA 2 with C44U, G47A, C49U, C50A
B11: target 1 C7U,A20U (mixed)
RNA 1: B1 RNA 1
RNA 2: B2 RNA 2 with A32U, C44U, C45U, C49U
B12: target 1 U8A,U11G (mixed)
RNA 1: B1 RNA 1
RNA 2: B2 RNA 2 with U41G, C44A, C49U
B13: target 1 del7,del11 (mixed)
RNA 1: B1 RNA 1
RNA 2: GGGAAUGGAUCCACAUCUACGAAUUCGUACCAUAGAGAGGUAUCGCUCACCGAGAUCGGAAGAGCACACGU
B14: target 1 C2U,U8A (mixed)
RNA 1: B1 RNA 1
RNA 2: B2 RNA 2 with C44A, C49U, C50U
B15: target 1 del2,del9 (mixed)
RNA 1: B1 RNA 1
RNA 2: B13 RNA 2 with A42U, G45C, C46G, U47C, C48U
B16: target 1 insG 3' of 20,insG 3' of 7 (mixed)
RNA 1: B1 RNA 1
RNA 2: B4 RNA 2 with U33G, A34U, G35A, U36G, A46C, C47G
B17: target 1 insA 3' of 13,insA 3' of 10 (mixed)
RNA 1: B1 RNA 1
RNA 2: B3 RNA 2 with C33U, U34A, A35G, G36A, U37G, G42U, U44A
B18: target 1 C6U,A14C (mixed)
RNA 1: B1 RNA 1
RNA 2: B2 RNA 2 with A38C, C44U, C46U, C49U
B19: target 1 insA 3' of 13,insC 3' of 9 (mixed)
RNA 1: B1 RNA 1
RNA 2: B4 RNA 2 with U36A, A37G, G38A, A39G, G40A, U45C, A46U
B20: target 1 insG 3' of 22,insG 3' of 3 (mixed)
RNA 1: B1 RNA 1
RNA 2: B1 RNA 2 with C31G, U32C, C51G, A52C, U53A
B21: target 1 insC 3' of 10,insG 3' of 7 (mixed)
RNA 1: B1 RNA 1
RNA 2: B4 RNA 2 with U36A, A37G, G38A, A39G, G41U, U43C, A46C, C47G
B22: target 1 C7U,U10A (mixed)
RNA 1: B1 RNA 1
RNA 2: B2 RNA 2 with U42A, C44U, C45U, C49U
B23: target 1 insG 3' of 14,insA 3' of 5 (mixed)
RNA 1: B1 RNA 1
RNA 2: B4 RNA 2 with U36A, A37G, G38A, A39G, A46C, C48G, G49A
B24: target 1 insA 3' of 17,insG 3' of 11 (mixed)
RNA 1: B1 RNA 1
RNA 2: B4 RNA 2 with U36A, U43G, A44U, U45A, A46U
B25: target 1 insA 3' of 19,insC 3' of 14 (mixed)
RNA 1: B1 RNA 1
RNA 2: B3 RNA 2 with C33U, U34A, U37A, A38G, G39A, A40C
B26: target 1 insU 3' of 22,insA 3' of 15 (mixed)
RNA 1: B1 RNA 1
RNA 2: B3 RNA 2 with C31U, A32C, C33A, U37A, A38G, G39A
B27: target 1 insG 3' of 18,insA 3' of 3 (mixed)
RNA 1: B1 RNA 1
RNA 2: B4 RNA 2 with U36G, A46C, C48G, G49C, C50U, U51A
B28: target 1 insU 3' of 14 (mixed)
RNA 1: B1 RNA 1
RNA 2: GGGAAUGGAUCCACAUCUACGAAUUCGUACCAUAGAGAUGGUUAUCCGCUCACCGAGAUCGGAAGAGCACACGU
B29: target 1 complement block 7-13 (mixed)
RNA 1: B1 RNA 1
RNA 2: B2 RNA 2 with G39C, G40C, U41A, U42A, A43U, C44A, C45G, C49U
B30: target 1 insA 3' of 21,insU 3' of 15 (mixed)
RNA 1: B1 RNA 1
RNA 2: B3 RNA 2 with C33A, U37A, A38G, G39U
B31: target 1 insG 3' of 14,insG 3' of 4 (mixed)
RNA 1: B1 RNA 1
RNA 2: B4 RNA 2 with U36A, A37G, G38A, A39G, A46C, C48G, G49C, C50G
B32: target 1 insC 3' of 12,insC 3' of 3 (mixed)
RNA 1: B1 RNA 1
RNA 2: GGGAAUGGAUCCACAUCUACGAAUUCGUACCAUAGAGAGGCUUAUCCGCUCCACCGAGAUCGGAAGAGCACACGU
B33: target 1 insG 3' of 22,insU 3' of 21 (mixed)
RNA 1: B1 RNA 1
RNA 2: B3 RNA 2 with C31G, A32C, C33U, U34A, A35U, G36A, U37G

What is called Kd is a measure of binding affinity in units of concentration. Higher therefore signals weaker binding.

In the data set the target is T1, EsCas13d, nuclease-dead (Eubacterium siraeum, UniProt B0MS50, R295A;H300A;R849A;H854A).
T1 sequence: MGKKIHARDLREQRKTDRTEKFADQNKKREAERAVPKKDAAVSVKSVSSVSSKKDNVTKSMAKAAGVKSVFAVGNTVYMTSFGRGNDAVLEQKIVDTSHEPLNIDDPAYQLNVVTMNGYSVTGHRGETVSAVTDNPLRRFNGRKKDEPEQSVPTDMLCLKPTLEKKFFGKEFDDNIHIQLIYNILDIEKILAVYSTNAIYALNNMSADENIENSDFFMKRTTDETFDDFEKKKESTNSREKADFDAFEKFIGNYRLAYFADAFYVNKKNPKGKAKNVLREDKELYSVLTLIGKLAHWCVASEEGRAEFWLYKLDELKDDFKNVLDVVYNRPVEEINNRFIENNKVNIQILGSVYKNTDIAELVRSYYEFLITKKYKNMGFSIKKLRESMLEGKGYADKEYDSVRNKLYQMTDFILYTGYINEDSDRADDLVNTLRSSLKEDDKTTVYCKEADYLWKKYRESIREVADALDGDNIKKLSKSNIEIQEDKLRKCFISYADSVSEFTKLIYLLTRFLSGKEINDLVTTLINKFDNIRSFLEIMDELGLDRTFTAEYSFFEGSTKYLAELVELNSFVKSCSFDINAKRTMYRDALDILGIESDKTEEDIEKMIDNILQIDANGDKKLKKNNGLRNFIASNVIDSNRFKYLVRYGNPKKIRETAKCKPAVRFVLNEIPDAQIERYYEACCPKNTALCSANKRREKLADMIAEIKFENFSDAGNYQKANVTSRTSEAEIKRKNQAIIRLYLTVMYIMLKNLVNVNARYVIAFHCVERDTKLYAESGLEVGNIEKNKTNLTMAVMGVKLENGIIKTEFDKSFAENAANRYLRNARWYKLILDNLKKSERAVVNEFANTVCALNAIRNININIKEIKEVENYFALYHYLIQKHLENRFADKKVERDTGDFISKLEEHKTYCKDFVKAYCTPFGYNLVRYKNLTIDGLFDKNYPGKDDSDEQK
Put plainly: crRNA (strand 1, pre-loaded); Mg2+; 40 mM Tris-HCl pH 7.5, 150 mM NaCl, 6 mM MgCl2, 1 mM DTT, 0.1% Tween-20, 0.2 mg/ml BSA; 25 C; 10 min per concentration, then washed. The settings on record: tags: His6-TwinStrep-SUMO cleaved; N-terminal SNAP kept (SNAP-Surface 488); label: 3' end held by stalled T7 RNA polymerase.
Take B1: the Kd came to 24.2 ± 1.8 nM.
To B2 belongs 13.4 ± 0.6 nM.
Take B3: the dissociation constant Kd was determined as 16.9 ± 2.2 nM.
For B4, binding was put at a Kd of 24.6 ± 1.5 nM.
As for B5, the figure is 29.8 ± 2.8 nM.
As for B6, the dissociation constant (Kd) was determined as 68 ± 20 nM.
To B7 belongs 14.4 ± 0.5 nM; to B8, 14.2 ± 1.5 nM; to B9, 5.27 ± 0.15 nM.
As for B10, the figure is 31.6 ± 3.2 nM.
To B11 belongs 41.2 ± 3.4 nM; to B12, 12.7 ± 0.5 nM.
B13 gave a dissociation constant Kd of 15.4 ± 0.5 nM.
To B14 belongs 21.2 ± 1 nM.
To B15 belongs 63 ± 9 nM.
To B16 belongs 29 ± 5 nM; to B17, 4.3 ± 0.5 nM.
Consider B18, for which the Kd turned out to be 20 ± 1 nM. Against the preceding molecule, the Kd is about 4.7-fold higher.
As for B19, the figure is 8 ± 0.4 nM.
B20 returned a dissociation constant (Kd) of 21.5 ± 2.1 nM. This Kd is about 2.7-fold higher than that of the molecule before.
As for B21, the figure is 16.8 ± 1.4 nM.
As for B22, the figure is 7.8 ± 0.4 nM; as for B23, 8.1 ± 0.4 nM; as for B24, 86 ± 21 nM.
As for B25, the figure is about 70 nM; as for B26, 13.7 ± 3.1 nM; as for B27, 49.3 ± 3.1 nM.
Take B28: the dissociation constant (Kd) worked out at 38 ± 4 nM.
As for B29, the figure is 79 ± 16 nM; as for B30, 31.6 ± 3.5 nM.
B31 showed an equilibrium dissociation constant (Kd) of 7.5 ± 0.8 nM.
To B32 belongs 12.3 ± 2.6 nM; to B33, 30 ± 2.5 nM.
